Experiment [1] has as its target HLA-C01:02 (C1) on 721.221 cells (human | human (endogenous in 721.221)).
Experiment [2] has as its target HLA-C07:01 (C1) on 721.221 cells (human | human (endogenous in 721.221)).

Turning to “KIR2DL2 reporter (2DL2–2DS1TM chimeric molecule, KIR2DL2*001) (receptor)”, in experiment [1], the GFP-positive NFAT-GFP reporter cells after overnight coculture with 721.221 transfectants (E:T 1:3) (% GFP-positive cells) was < 5. For the same substance, the GFP-positive NFAT-GFP reporter cells after overnight coculture with 721.221 transfectants (E:T 1:3) in experiment [2] is > 20 % GFP cells.

(Values after article PMC5372792.)
